The values that follow come from the supplement of paper PMC9428881.

This data set can be described thus: background-corrected fluorescence of 3'-dye-labeled ssDNA relative to brightest sequence (3'-GCGCG) (fraction); higher = brighter dye fluorescence (less quenching). As for the experimental part: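 Single-stranded DNA is synthesized in situ on glass microarrays by 5'->3' photolithographic synthesis, with a Cy3 or Cy5 phosphoramidite coupled at the 3' end next to all 1024 permuted pentamers P1-P5. The construct is 5'-T5-(ACGT minus P5..P1 trinucleotides)-T15-P5P4P3P2P1-dye-3'; the dye is a 3' terminal modification, not part of the sequence. Arrays were scanned at 532 nm (Cy3) or 635 nm (Cy5), background from unlabeled oligos was subtracted, and values are averaged over 10 replicate features per array and at least 3 independent syntheses.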

± gives the standard error.

On to “TTTTTGCAGCAGCAGCAGCATTTTTTTTTTTTTTTTTTTT”, for which the background-corrected fluorescence amounted to 0.489 ± 0.032 (dye: Cy3 (3' terminal)) and 0.34 ± 0.015 (dye: Cy5 (3' terminal)).

Turning to “TTTTTGCAGCAGCAGCATCATTTTTTTTTTTTTTTTTTTG [GTTTT]”, the background-corrected fluorescence reads like this: (dye: Cy3 (3' terminal)) 0.461 ± 0.0051; (dye: Cy5 (3' terminal)) 0.334 ± 0.032.

“TTTTTGCAGCAGCAGCATGATTTTTTTTTTTTTTTTTTTC [CTTTT]”: the background-corrected fluorescence (dye: Cy3 (3' terminal)) worked out at 0.373 ± 0.032 and the background-corrected fluorescence (dye: Cy5 (3' terminal)) was 0.257 ± 0.015.

The sequence “TTTTTGCAGCAGCAGCATGCTTTTTTTTTTTTTTTTTTTA [ATTTT]” came in with a background-corrected fluorescence (dye: Cy3 (3' terminal)) of 0.501 ± 0.033 and a background-corrected fluorescence (dye: Cy5 (3' terminal)) of 0.411 ± 0.028.

“TTTTTGCAGCAGCATCAGCATTTTTTTTTTTTTTTTTTGT [TGTTT]”: the background-corrected fluorescence (dye: Cy3 (3' terminal)) came to 0.649 ± 0.02 and the background-corrected fluorescence (dye: Cy5 (3' terminal)) was 0.46 ± 0.028.

Turning to “TTTTTGCAGCAGCATCATCATTTTTTTTTTTTTTTTTTGG [GGTTT]”, the background-corrected fluorescence is, setting by setting: (dye: Cy3 (3' terminal)) 0.612 ± 0.01; (dye: Cy5 (3' terminal)) 0.444 ± 0.027.

Consider “TTTTTGCAGCAGCATCATGATTTTTTTTTTTTTTTTTTGC [CGTTT]”, for which the background-corrected fluorescence came out at 0.495 ± 0.024 (dye: Cy3 (3' terminal)) and 0.341 ± 0.032 (dye: Cy5 (3' terminal)).

“TTTTTGCAGCAGCATCATGCTTTTTTTTTTTTTTTTTTGA [AGTTT]”: the background-corrected fluorescence is, setting by setting: (dye: Cy3 (3' terminal)) 0.634 ± 0.029; (dye: Cy5 (3' terminal)) 0.524 ± 0.03.

As for “TTTTTGCAGCAGCATGAGCATTTTTTTTTTTTTTTTTTCT [TCTTT]”, the background-corrected fluorescence is, setting by setting: (dye: Cy3 (3' terminal)) 0.463 ± 0.024; (dye: Cy5 (3' terminal)) 0.321 ± 0.019.

On to “TTTTTGCAGCAGCATGATCATTTTTTTTTTTTTTTTTTCG [GCTTT]”, for which the background-corrected fluorescence (dye: Cy3 (3' terminal)) came out at 0.468 ± 0.011 and the background-corrected fluorescence (dye: Cy5 (3' terminal)) was found to be 0.327 ± 0.027.

On to “TTTTTGCAGCAGCATGATGATTTTTTTTTTTTTTTTTTCC [CCTTT]”, for which the background-corrected fluorescence (dye: Cy3 (3' terminal)) came out at 0.363 ± 0.017 and the background-corrected fluorescence (dye: Cy5 (3' terminal)) is 0.253 ± 0.015.

“TTTTTGCAGCAGCATGATGCTTTTTTTTTTTTTTTTTTCA [ACTTT]” showed a background-corrected fluorescence (dye: Cy3 (3' terminal)) of 0.482 ± 0.032 and a background-corrected fluorescence (dye: Cy5 (3' terminal)) of 0.373 ± 0.046.

In the case of “TTTTTGCAGCAGCATGCGCATTTTTTTTTTTTTTTTTTAT [TATTT]”, the background-corrected fluorescence reads like this: (dye: Cy3 (3' terminal)) 0.503 ± 0.033; (dye: Cy5 (3' terminal)) 0.364 ± 0.017.

“TTTTTGCAGCAGCATGCTCATTTTTTTTTTTTTTTTTTAG [GATTT]”: the background-corrected fluorescence (dye: Cy3 (3' terminal)) came out at 0.511 ± 0.015 and the background-corrected fluorescence (dye: Cy5 (3' terminal)) worked out at 0.394 ± 0.048.

Sequence “TTTTTGCAGCAGCATGCTGATTTTTTTTTTTTTTTTTTAC [CATTT]” returned a background-corrected fluorescence (dye: Cy3 (3' terminal)) of 0.391 ± 0.039 and a background-corrected fluorescence (dye: Cy5 (3' terminal)) of 0.292 ± 0.021.

On to “TTTTTGCAGCAGCATGCTGCTTTTTTTTTTTTTTTTTTAA [AATTT]”, for which the background-corrected fluorescence (dye: Cy3 (3' terminal)) is 0.569 ± 0.036 and the background-corrected fluorescence (dye: Cy5 (3' terminal)) came to 0.439 ± 0.024.

“TTTTTGCAGCATCAGCAGCATTTTTTTTTTTTTTTTTGTT” yielded a background-corrected fluorescence (dye: Cy3 (3' terminal)) of 0.554 ± 0.018 and a background-corrected fluorescence (dye: Cy5 (3' terminal)) of 0.405 ± 0.024.

Turning to “TTTTTGCAGCATCAGCATCATTTTTTTTTTTTTTTTTGTG [GTGTT]”, the background-corrected fluorescence worked out at 0.524 ± 0.031 (dye: Cy3 (3' terminal)) and 0.397 ± 0.019 (dye: Cy5 (3' terminal)).

Take “TTTTTGCAGCATCAGCATGATTTTTTTTTTTTTTTTTGTC [CTGTT]”: the background-corrected fluorescence (dye: Cy3 (3' terminal)) worked out at 0.407 ± 0.013 and the background-corrected fluorescence (dye: Cy5 (3' terminal)) worked out at 0.345 ± 0.024.

For “TTTTTGCAGCATCAGCATGCTTTTTTTTTTTTTTTTTGTA [ATGTT]”, the background-corrected fluorescence reads like this: (dye: Cy3 (3' terminal)) 0.576 ± 0.02; (dye: Cy5 (3' terminal)) 0.487 ± 0.053.

On to “TTTTTGCAGCATCATCAGCATTTTTTTTTTTTTTTTTGGT [TGGTT]”, for which the background-corrected fluorescence by setting is: (dye: Cy3 (3' terminal)) 0.689 ± 0.017; (dye: Cy5 (3' terminal)) 0.593 ± 0.047.

In the case of “TTTTTGCAGCATCATCATCATTTTTTTTTTTTTTTTTGGG [GGGTT]”, the background-corrected fluorescence (dye: Cy3 (3' terminal)) came out at 0.661 ± 0.029 and the background-corrected fluorescence (dye: Cy5 (3' terminal)) was 0.549 ± 0.029.

“TTTTTGCAGCATCATCATGATTTTTTTTTTTTTTTTTGGC [CGGTT]”: the background-corrected fluorescence by setting is: (dye: Cy3 (3' terminal)) 0.556 ± 0.017; (dye: Cy5 (3' terminal)) 0.457 ± 0.023.

Take “TTTTTGCAGCATCATCATGCTTTTTTTTTTTTTTTTTGGA [AGGTT]”: the background-corrected fluorescence reads like this: (dye: Cy3 (3' terminal)) 0.689 ± 0.02; (dye: Cy5 (3' terminal)) 0.638 ± 0.054.

As for “TTTTTGCAGCATCATGAGCATTTTTTTTTTTTTTTTTGCT [TCGTT]”, the background-corrected fluorescence reads like this: (dye: Cy3 (3' terminal)) 0.482 ± 0.014; (dye: Cy5 (3' terminal)) 0.361 ± 0.019.

In the case of “TTTTTGCAGCATCATGATCATTTTTTTTTTTTTTTTTGCG [GCGTT]”, the background-corrected fluorescence (dye: Cy3 (3' terminal)) came to 0.559 ± 0.028 and the background-corrected fluorescence (dye: Cy5 (3' terminal)) came out at 0.46 ± 0.036.

As to “TTTTTGCAGCATCATGATGATTTTTTTTTTTTTTTTTGCC [CCGTT]”, the background-corrected fluorescence runs as follows: (dye: Cy3 (3' terminal)) 0.41 ± 0.015; (dye: Cy5 (3' terminal)) 0.322 ± 0.059.

Turning to “TTTTTGCAGCATCATGATGCTTTTTTTTTTTTTTTTTGCA [ACGTT]”, the background-corrected fluorescence came out at 0.546 ± 0.025 (dye: Cy3 (3' terminal)) and 0.456 ± 0.039 (dye: Cy5 (3' terminal)).

Take “TTTTTGCAGCATCATGCGCATTTTTTTTTTTTTTTTTGAT [TAGTT]”: the background-corrected fluorescence runs as follows: (dye: Cy3 (3' terminal)) 0.578 ± 0.013; (dye: Cy5 (3' terminal)) 0.453 ± 0.03.

For “TTTTTGCAGCATCATGCTCATTTTTTTTTTTTTTTTTGAG [GAGTT]”, the background-corrected fluorescence by setting is: (dye: Cy3 (3' terminal)) 0.542 ± 0.0086; (dye: Cy5 (3' terminal)) 0.429 ± 0.016.

In the case of “TTTTTGCAGCATCATGCTGATTTTTTTTTTTTTTTTTGAC [CAGTT]”, the background-corrected fluorescence (dye: Cy3 (3' terminal)) worked out at 0.461 ± 0.024 and the background-corrected fluorescence (dye: Cy5 (3' terminal)) turned out to be 0.354 ± 0.04.

Regarding “TTTTTGCAGCATCATGCTGCTTTTTTTTTTTTTTTTTGAA [AAGTT]”, the background-corrected fluorescence is, setting by setting: (dye: Cy3 (3' terminal)) 0.634 ± 0.019; (dye: Cy5 (3' terminal)) 0.527 ± 0.03.

For the sequence “TTTTTGCAGCATGAGCAGCATTTTTTTTTTTTTTTTTCTT”, the background-corrected fluorescence reads like this: (dye: Cy3 (3' terminal)) 0.481 ± 0.015; (dye: Cy5 (3' terminal)) 0.348 ± 0.026.

For the sequence “TTTTTGCAGCATGAGCATCATTTTTTTTTTTTTTTTTCTG [GTCTT]”, the background-corrected fluorescence is 0.472 ± 0.026 (dye: Cy3 (3' terminal)) and 0.338 ± 0.046 (dye: Cy5 (3' terminal)).

For “TTTTTGCAGCATGAGCATGATTTTTTTTTTTTTTTTTCTC [CTCTT]”, the background-corrected fluorescence is 0.389 ± 0.03 (dye: Cy3 (3' terminal)) and 0.272 ± 0.035 (dye: Cy5 (3' terminal)).

Turning to “TTTTTGCAGCATGAGCATGCTTTTTTTTTTTTTTTTTCTA [ATCTT]”, the background-corrected fluorescence is, setting by setting: (dye: Cy3 (3' terminal)) 0.467 ± 0.02; (dye: Cy5 (3' terminal)) 0.404 ± 0.036.

As to “TTTTTGCAGCATGATCAGCATTTTTTTTTTTTTTTTTCGT [TGCTT]”, the background-corrected fluorescence (dye: Cy3 (3' terminal)) is 0.564 ± 0.013 and the background-corrected fluorescence (dye: Cy5 (3' terminal)) is 0.432 ± 0.025.

“TTTTTGCAGCATGATCATCATTTTTTTTTTTTTTTTTCGG [GGCTT]”: the background-corrected fluorescence runs as follows: (dye: Cy3 (3' terminal)) 0.59 ± 0.022; (dye: Cy5 (3' terminal)) 0.485 ± 0.024.

As to “TTTTTGCAGCATGATCATGATTTTTTTTTTTTTTTTTCGC [CGCTT]”, the background-corrected fluorescence is, setting by setting: (dye: Cy3 (3' terminal)) 0.503 ± 0.031; (dye: Cy5 (3' terminal)) 0.406 ± 0.088.

For “TTTTTGCAGCATGATCATGCTTTTTTTTTTTTTTTTTCGA [AGCTT]”, the background-corrected fluorescence runs as follows: (dye: Cy3 (3' terminal)) 0.645 ± 0.025; (dye: Cy5 (3' terminal)) 0.533 ± 0.067.

“TTTTTGCAGCATGATGAGCATTTTTTTTTTTTTTTTTCCT [TCCTT]”: the background-corrected fluorescence reads like this: (dye: Cy3 (3' terminal)) 0.444 ± 0.021; (dye: Cy5 (3' terminal)) 0.325 ± 0.036.

“TTTTTGCAGCATGATGATCATTTTTTTTTTTTTTTTTCCG [GCCTT]” returned a background-corrected fluorescence (dye: Cy3 (3' terminal)) of 0.488 ± 0.011 and a background-corrected fluorescence (dye: Cy5 (3' terminal)) of 0.366 ± 0.035.

Turning to “TTTTTGCAGCATGATGATGATTTTTTTTTTTTTTTTTCCC [CCCTT]”, the background-corrected fluorescence runs as follows: (dye: Cy3 (3' terminal)) 0.35 ± 0.0099; (dye: Cy5 (3' terminal)) 0.266 ± 0.016.
